# Measurements reported in patent US20110262366A1.
# No end group written: not given here.
# Experiments:
# [1] = molecular target: endothelial cell receptor on HAEC (human aortic endothelial cells); assay: competition, free TKPPR 10 µM (head prints 10 µmol) against 5% DPPE-GTKPPR microbubbles (competitor) on HAEC, static
# [2] = molecular target: endothelial cell receptor on HAEC (human aortic endothelial cells); assay: competition, 10 µM free TKPPR against 1% DPPE-GTKPPR microbubbles (competitor) on HAEC, static
# [3] = molecular target: endothelial cell receptor on HAEC (human aortic endothelial cells); assay: competition, 25 µM free TKPPR against 1% BRU-114 microbubbles (competitor) on HAEC, static
# [4] = molecular target: endothelial cell receptor on HAEC (human aortic endothelial cells); assay: competition, 100 µM free TKPPR against 1% DPPE-GTKPPR microbubbles (competitor) on HAEC, static
# [5] = molecular target: endothelial cell receptor on HAEC (human aortic endothelial cells); assay: competition, 5 µM free TKPPR against 1% BRU-114 microbubbles (competitor) on HAEC, static
# [6] = molecular target: endothelial cell receptor on HAEC (human aortic endothelial cells); assay: competition, free TKPPR 100 µM (head prints 100 µmol) against 5% DPPE-GTKPPR microbubbles (competitor) on HAEC, static
# [7] = molecular target: endothelial cell receptor on HAEC (human aortic endothelial cells); assay: competition, 10 µM free TKPPR against 10% BRU-114 microbubbles (competitor) on HAEC, static
# [8] = molecular target: endothelial cell receptor on HAEC (human aortic endothelial cells); assay: competition, 10 µM free TKPPR against 1% BRU-114 microbubbles (competitor) on HAEC, static
# [9] = molecular target: endothelial cell receptor on HAEC (human aortic endothelial cells); assay: competition, 100 µM free TKPPR against 1% BRU-114 microbubbles (competitor) on HAEC, static
# [10] = molecular target: endothelial cell receptor on HAEC (human aortic endothelial cells); assay: competition, 50 µM free TKPPR against 1% BRU-114 microbubbles (competitor) on HAEC, static
# [11] = molecular target: endothelial cell receptor on HAEC (human aortic endothelial cells); assay: competition against 5% DPPE-GTKPPR microbubbles (competitor) on HAEC, static
# [12] = molecular target: endothelial cell receptor on HAEC (human aortic endothelial cells); assay: competition, 500 µM free TKPPR against TKPPR-beads (competitor) on HAEC, static, n = 11
# [13] = molecular target: endothelial cell receptor on HAEC (human aortic endothelial cells); assay: competition, 100 µM free TKPPR against 5% BRU-114 microbubbles (competitor) on HAEC, static
# [14] = molecular target: endothelial cell receptor on HAEC (human aortic endothelial cells); assay: competition, 100 µM free TKPPR against 5% DPPE-GTKPPR microbubbles (competitor) on HAEC, static
# [15] = molecular target: endothelial cell receptor on HAEC (human aortic endothelial cells); assay: competition, 10 µM free TKPPR against TKPPR-beads (competitor) on HAEC, static, n = 11
# [16] = molecular target: endothelial cell receptor on HAEC (human aortic endothelial cells); assay: competition, 200 µM free TKPPR against TKPPR-beads (competitor) on HAEC, static, n = 11
# [17] = molecular target: endothelial cell receptor on HAEC (human aortic endothelial cells); assay: competition, 10 µM free TKPPR against 1% BRU-114 microbubbles (competitor) on HAEC, static; remark: listed apart in the source
# [18] = molecular target: endothelial cell receptor on HAEC (human aortic endothelial cells); assay: competition, 200 µM free TKPPR against 1% BRU-114 microbubbles (competitor) on HAEC, static
# [19] = molecular target: endothelial cell receptor on HAEC (human aortic endothelial cells); assay: competition, 100 µM free TKPPR against TKPPR-beads (competitor) on HAEC, static, n = 11
# [20] = molecular target: endothelial cell receptor on HAEC (human aortic endothelial cells); assay: competition, 5 µM free TKPPR against 1% DPPE-GTKPPR microbubbles (competitor) on HAEC, static
# [21] = molecular target: endothelial cell receptor on HAEC (human aortic endothelial cells); assay: competition, free TKPPR 100 µM (head prints 100 µmol) against 1% DPPE-GTKPPR microbubbles (competitor) on HAEC, static
# [22] = molecular target: endothelial cell receptor on HAEC (human aortic endothelial cells); assay: competition, 2.5 µM free TKPPR against 1% BRU-292 microbubbles (competitor) on HAEC, static
# [23] = molecular target: endothelial cell receptor on HAEC (human aortic endothelial cells); assay: competition, 100 µM free TKPPR against 10% BRU-114 microbubbles (competitor) on HAEC, static
# [24] = molecular target: endothelial cell receptor on HAEC (human aortic endothelial cells); assay: competition, free TKPPR 10 µM (head prints 10 µmol) against 1% DPPE-GTKPPR microbubbles (competitor) on HAEC, static
# [25] = molecular target: endothelial cell receptor on HAEC (human aortic endothelial cells); assay: competition, 25 µM free TKPPR against TKPPR-beads (competitor) on HAEC, static, n = 11
# [26] = molecular target: endothelial cell receptor on HAEC (human aortic endothelial cells); assay: competition, 50 µM free TKPPR against 5% BRU-114 microbubbles (competitor) on HAEC, static
# [27] = molecular target: endothelial cell receptor on HAEC (human aortic endothelial cells); assay: competition, 25 µM free TKPPR against 1% BRU-114 microbubbles (competitor) on HAEC, static; remark: listed apart in the source
# [28] = molecular target: endothelial cell receptor on RAEC (rabbit aortic endothelial cells); assay: competition, 100 µM free TKPPR against 5% DPPE-GTKPPR microbubbles (competitor) on RAEC, static
# [29] = molecular target: endothelial cell receptor on HAEC (human aortic endothelial cells); assay: competition, 10 µM free TKPPR against 1% BRU-114 microbubbles (competitor) on HAEC, static; remark: listed apart in the source
# [30] = molecular target: endothelial cell receptor on HAEC (human aortic endothelial cells); assay: competition, 50 µM free TKPPR against 1% DPPE-GTKPPR microbubbles (competitor) on HAEC, static
# [31] = molecular target: endothelial cell receptor on HAEC (human aortic endothelial cells); assay: competition, 50 µM free TKPPR against 1% BRU-114 microbubbles (competitor) on HAEC, static; remark: listed apart in the source
# [32] = molecular target: endothelial cell receptor on HAEC (human aortic endothelial cells); assay: competition, 10 µM free TKPPR against 1% BRU-292 microbubbles (competitor) on HAEC, static
# [33] = molecular target: endothelial cell receptor on HAEC (human aortic endothelial cells); assay: competition, 100 µM free TKPPR against 1% BRU-114 microbubbles (competitor) on HAEC, static; remark: listed apart in the source
binder,measurement,setting,value
TKPPR-OH [TKPPR-OH (L-threonyl-L-lysyl-L-prolyl-L-prolyl-L-arginine)],Bubbles Bound in presence of competitor,[1],865 bubbles
same,Average % Inhibition,[2],79.6%
same,Bubbles Bound in presence of competitor,[3],106 bubbles
same,Average % Inhibition,[4],93.7%
same,Bubbles Bound in presence of competitor,[5],790 bubbles
same,Bubbles Bound in presence of competitor,[6],62 bubbles
same,Bubbles Bound in presence of competitor,[7],1090 bubbles
same,Bubbles Bound in presence of competitor,[8],10 bubbles
same,Bubbles Bound in presence of competitor,[9],17 bubbles
same,Bubbles Bound in presence of competitor,[10],56 bubbles
same,% more bubbles bound,[11],19%
same,% Inhibition,[12],70.6%
same,Bubbles Bound in presence of competitor,[13],12 bubbles
same,HAEC bubbles bound in presence of competitor,[14],58 bubbles
same,% Inhibition,[15],30.8%
same,% Inhibition,[16],72.2%
same,Bubbles Bound in presence of competitor,[17],528 bubbles
same,Bubbles Bound in presence of competitor,[18],4 bubbles
same,% Inhibition,[19],62%
same,Average % Inhibition,[20],45.7%
same,Bubbles Bound in presence of competitor,[21],5 bubbles
same,Bubbles Bound in presence of competitor,[22],888 bubbles
same,Bubbles Bound in presence of competitor,[23],399 bubbles
same,Bubbles Bound in presence of competitor,[24],96 bubbles
same,% Inhibition,[25],50.7%
same,Bubbles Bound in presence of competitor,[26],440 bubbles
same,Bubbles Bound in presence of competitor,[27],75 bubbles
same,RAEC bubbles bound in presence of competitor,[28],21 bubbles
same,Bubbles Bound in presence of competitor,[29],535 bubbles
same,Average % Inhibition,[30],92.7%
same,Bubbles Bound in presence of competitor,[31],5 bubbles
same,Bubbles Bound in presence of competitor,[32],833 bubbles
same,Bubbles Bound in presence of competitor,[33],4 bubbles
